Measured values from publication doi:10.1101/2021.10.29.466147 (bioRxiv, 2021).

T1: Smc4 V721C, R1417C (SMC-kleisin ring circularization in vitro) (S. cerevisiae, UniProt Q12267 1-1418, V721C | R1417C)
T1 sequence: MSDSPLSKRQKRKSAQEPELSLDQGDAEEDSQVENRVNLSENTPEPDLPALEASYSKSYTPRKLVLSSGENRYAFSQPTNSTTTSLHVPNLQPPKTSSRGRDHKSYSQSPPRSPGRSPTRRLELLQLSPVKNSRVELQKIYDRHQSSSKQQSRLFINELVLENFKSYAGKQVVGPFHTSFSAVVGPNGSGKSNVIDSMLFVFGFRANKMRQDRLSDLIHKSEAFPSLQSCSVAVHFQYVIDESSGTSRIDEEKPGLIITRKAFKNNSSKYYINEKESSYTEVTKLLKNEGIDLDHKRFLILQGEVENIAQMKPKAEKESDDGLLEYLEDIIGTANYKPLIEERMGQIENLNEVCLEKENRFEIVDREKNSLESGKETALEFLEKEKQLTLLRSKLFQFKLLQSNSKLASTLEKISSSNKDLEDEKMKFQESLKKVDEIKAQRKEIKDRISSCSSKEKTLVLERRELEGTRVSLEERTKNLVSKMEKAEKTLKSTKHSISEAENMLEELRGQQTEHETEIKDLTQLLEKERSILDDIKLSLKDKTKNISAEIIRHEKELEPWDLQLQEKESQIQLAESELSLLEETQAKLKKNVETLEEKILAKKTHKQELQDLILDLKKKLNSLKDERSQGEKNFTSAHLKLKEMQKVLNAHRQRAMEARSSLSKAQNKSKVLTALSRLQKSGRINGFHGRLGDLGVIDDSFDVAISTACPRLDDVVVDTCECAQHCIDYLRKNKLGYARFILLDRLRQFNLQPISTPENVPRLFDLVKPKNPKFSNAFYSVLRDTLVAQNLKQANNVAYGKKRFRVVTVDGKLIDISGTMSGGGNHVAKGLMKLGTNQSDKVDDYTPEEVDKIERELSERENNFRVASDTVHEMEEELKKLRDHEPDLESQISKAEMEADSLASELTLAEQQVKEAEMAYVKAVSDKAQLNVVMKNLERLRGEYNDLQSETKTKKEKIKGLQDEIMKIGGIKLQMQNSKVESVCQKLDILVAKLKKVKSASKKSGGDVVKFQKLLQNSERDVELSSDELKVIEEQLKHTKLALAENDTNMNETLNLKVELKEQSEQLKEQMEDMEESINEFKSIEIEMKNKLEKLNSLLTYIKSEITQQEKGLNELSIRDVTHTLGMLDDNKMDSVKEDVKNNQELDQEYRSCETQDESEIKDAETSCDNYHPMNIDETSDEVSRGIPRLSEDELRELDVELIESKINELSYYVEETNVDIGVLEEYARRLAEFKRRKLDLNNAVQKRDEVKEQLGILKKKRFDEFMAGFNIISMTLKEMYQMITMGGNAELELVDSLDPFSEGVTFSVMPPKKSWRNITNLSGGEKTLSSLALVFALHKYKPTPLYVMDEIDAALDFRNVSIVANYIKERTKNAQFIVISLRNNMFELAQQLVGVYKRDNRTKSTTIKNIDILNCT

T2: Ycs4, HEAT-repeat subunit I of S. cerevisiae condensin (S. cerevisiae, UniProt Q06156 1-1176)
T2 sequence: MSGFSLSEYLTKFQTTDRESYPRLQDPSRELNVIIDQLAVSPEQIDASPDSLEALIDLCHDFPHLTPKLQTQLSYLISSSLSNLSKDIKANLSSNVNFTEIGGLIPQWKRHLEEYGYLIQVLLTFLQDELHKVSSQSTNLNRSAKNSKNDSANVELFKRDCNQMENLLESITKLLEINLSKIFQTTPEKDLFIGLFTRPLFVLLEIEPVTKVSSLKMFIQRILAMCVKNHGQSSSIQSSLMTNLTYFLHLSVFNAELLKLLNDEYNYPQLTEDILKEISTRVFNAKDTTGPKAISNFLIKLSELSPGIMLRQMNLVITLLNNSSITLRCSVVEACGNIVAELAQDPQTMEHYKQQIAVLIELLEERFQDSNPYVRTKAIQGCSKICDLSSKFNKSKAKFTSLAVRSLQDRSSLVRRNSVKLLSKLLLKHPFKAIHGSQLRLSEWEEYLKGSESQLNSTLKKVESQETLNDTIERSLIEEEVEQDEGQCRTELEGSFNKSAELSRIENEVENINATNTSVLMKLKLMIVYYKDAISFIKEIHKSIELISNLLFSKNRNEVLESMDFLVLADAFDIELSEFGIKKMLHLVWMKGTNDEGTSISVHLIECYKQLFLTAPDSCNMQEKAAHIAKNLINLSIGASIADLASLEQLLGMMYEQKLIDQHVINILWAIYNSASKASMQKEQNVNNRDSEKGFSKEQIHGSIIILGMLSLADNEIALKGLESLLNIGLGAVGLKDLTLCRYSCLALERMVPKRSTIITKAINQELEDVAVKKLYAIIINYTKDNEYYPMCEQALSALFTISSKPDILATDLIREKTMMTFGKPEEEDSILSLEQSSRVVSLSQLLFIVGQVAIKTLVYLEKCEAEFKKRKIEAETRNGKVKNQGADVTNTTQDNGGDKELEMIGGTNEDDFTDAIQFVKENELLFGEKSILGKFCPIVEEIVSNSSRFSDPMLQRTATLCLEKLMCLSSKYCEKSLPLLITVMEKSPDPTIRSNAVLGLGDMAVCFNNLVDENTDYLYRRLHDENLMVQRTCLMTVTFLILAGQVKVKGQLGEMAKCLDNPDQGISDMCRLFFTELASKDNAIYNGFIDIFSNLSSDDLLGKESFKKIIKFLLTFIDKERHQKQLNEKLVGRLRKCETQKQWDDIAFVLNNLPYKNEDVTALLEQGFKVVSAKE


How the values were obtained:
[1] = target: T1, Smc4 V721C, R1417C (SMC-kleisin ring …); test: cross-linking
[2] = target: T2, Ycs4, HEAT-repeat subunit I of S. …; test: cryo-EM structure

binding result [1]	binding result [2]	Binder
binds		Brn1 K709C, the Brn1 part of the Smc2–TEV–Brn1 fusion (SMC-kleisin ring circularization in vitro) (natural protein, S. cerevisiae) MTTQLRYENNDDDERVEYNLFTNRSTMMANFEEWIKMATDNKINSRNSWNFALIDYFYDLDVLKDGENNINFQKASATLDGCIKIYSSRVDSVTTETGKLLSGLAQRKTNGASNGDDSNGGNGEGLGGDSDEANIEIDPLTGMPISNDPDVNNTRRRVYNRVLETTLVEFETIKMKELDQELIIDPLFKKALVDFDEGGAKSLLLNTLNIDNTARVIFDASIKDTQNVGQGKLQRKEEELIERDSLVDDENEPSQSLISTRNDSTVNDSVISAPSMEDEILSLGMDFIKFDQIAVCEISGSIEQLRNVVEDINQAKDFIENVNNRFDNFLTEEELQAAVPDNAEDDSDGFDMGMQQELCYPDENHDNTSHDEQDDDNVNSTTGSIFEKDLMAYFDENLNRNWRGREHWKVRNFKKANLVNKESDLLEETRTTIGDTTDKNTTDDKSMDTKKKHKQKKVLEIDFFKTDDSFEDKVFASKGRTKIDMPIKNRKNDTHYLLPDDFHFSTDRITRLFIKPGQKMSLFSHRKHTRGDVSSGLFEKSTVSANHSNNDIPTIADEHFWADNYERKEQEEKEKEQSKEVGDVVGGALDNPFEDDMDGVDFNQAFEGTDDNEEASVKLDLQDDEDHKFPIRENKVTYSRVSKKVDVRRLKKNVWRSINNLIQEHDSRKNREQSSNDSETHTEDESTKELKFSDIIQGISKMYSDDTLCDISTSFCFICLLHLANEHGLQITHTENYNDLIVNYEDLATTQAAS
binds		Smc2 K639C, the Smc2 part of the Smc2–TEV–Brn1 fusion (SMC-kleisin ring circularization in vitro) (natural protein, S. cerevisiae) MKVEELIIDGFKSYATRTVITDWDPQFNAITGLNGSGKSNILDAICFVLGIASMSTVRASSLQDLIYKRGQAGVTKASVTIVFDNTDKSNSPIGFTNSPQISVTRQVVLGGTSKYLINGHRAPQQSVLQLFQSVQLNINNPNFLIMQGKITKVLNMKPSEILSLIEEAAGTKMFEDRREKAERTMSKKETKLQENRTLLTEEIEPKLEKLRNEKRMFLEFQSTQTDLEKTERIVVSYEYYNIKHKHTSIRETLENGETRMKMLNEFVKKTSEEIDSLNEDVEEIKLQKEKELHKEGTISKLENKENGLLNEISRLKTSLSIKVENLNDTTEKSKALESEIASSSAKLIEKKSAYANTEKDYKMVQEQLSKQRDLYKRKEELVSTLTTGISSTGAADGGYNAQLAKAKTELNEVSLAIKKSSMKMELLKKELLTIEPKLKEATKDNELNVKHVKQCQETCDKLRARLVEYGFDPSRIKDLKQREDKLKSHYYQTCKNSEYLKRRVTNLEFNYTKPYPNFEASFVHGVVGQLFQIDNDNIRYATALQTCAGGRLFNVVVQDSQTATQLLERGRLRKRVTIIPLDKIYTRPISSQVLDLAKKIAPGKVELAINLIRFDESITKAMEFIFGNSLICEDPETACKITFHPKIRARSITLQGDVYDPEGTLSGGSRNTSESLLVDIQKYNQIQKQIETIQADLNHVTEELQTQYATSQKTKTIQSDLNLSLHKLDLAKRNLDANPSSQIIARNEEILRDIGECENEIKTKQMSLKKCQEEVSTIEKDMKEYDSDKGSKLNELKKELKLLAKELEEQESESERKYDLFQNLELETEQLSSELDSNKTLLHNHLKSIESLKLENSDLEGKIRGVEDDLVTVQTELNEEKKRLMDIDDELNELETLIKKKQDEKKSSELELQKLVHDLNKYKSNTNNMEKIIEDLRQKHEFLEDFDLVRNIVKQNEGIDLDTYRERSKQLNEKFQELRKKVNPNIMNMIENVEKKEAALKTMIKTIEKDKMKIQETISKLNEYKRETLVKTWEKVTLDFGNIFADLLPNSFAKLVPCEGKDVTQGLEVKVKLGNIWKESLIELSGGQRSLIALSLIMALLQFRPAPMYILDEVDAALDLSHTQNIGHLIKTRFKGSQFIVVSLKEGMFANANRVFRTRFQDGTSVVSIM
	binds	Smc2 E1113Q (Walker B mutant, EQ) of the S. cerevisiae condensin holo complex (natural protein) MKVEELIIDGFKSYATRTVITDWDPQFNAITGLNGSGKSNILDAICFVLGIASMSTVRASSLQDLIYKRGQAGVTKASVTIVFDNTDKSNSPIGFTNSPQISVTRQVVLGGTSKYLINGHRAPQQSVLQLFQSVQLNINNPNFLIMQGKITKVLNMKPSEILSLIEEAAGTKMFEDRREKAERTMSKKETKLQENRTLLTEEIEPKLEKLRNEKRMFLEFQSTQTDLEKTERIVVSYEYYNIKHKHTSIRETLENGETRMKMLNEFVKKTSEEIDSLNEDVEEIKLQKEKELHKEGTISKLENKENGLLNEISRLKTSLSIKVENLNDTTEKSKALESEIASSSAKLIEKKSAYANTEKDYKMVQEQLSKQRDLYKRKEELVSTLTTGISSTGAADGGYNAQLAKAKTELNEVSLAIKKSSMKMELLKKELLTIEPKLKEATKDNELNVKHVKQCQETCDKLRARLVEYGFDPSRIKDLKQREDKLKSHYYQTCKNSEYLKRRVTNLEFNYTKPYPNFEASFVHGVVGQLFQIDNDNIRYATALQTCAGGRLFNVVVQDSQTATQLLERGRLRKRVTIIPLDKIYTRPISSQVLDLAKKIAPGKVELAINLIRFDESITKAMEFIFGNSLICEDPETAKKITFHPKIRARSITLQGDVYDPEGTLSGGSRNTSESLLVDIQKYNQIQKQIETIQADLNHVTEELQTQYATSQKTKTIQSDLNLSLHKLDLAKRNLDANPSSQIIARNEEILRDIGECENEIKTKQMSLKKCQEEVSTIEKDMKEYDSDKGSKLNELKKELKLLAKELEEQESESERKYDLFQNLELETEQLSSELDSNKTLLHNHLKSIESLKLENSDLEGKIRGVEDDLVTVQTELNEEKKRLMDIDDELNELETLIKKKQDEKKSSELELQKLVHDLNKYKSNTNNMEKIIEDLRQKHEFLEDFDLVRNIVKQNEGIDLDTYRERSKQLNEKFQELRKKVNPNIMNMIENVEKKEAALKTMIKTIEKDKMKIQETISKLNEYKRETLVKTWEKVTLDFGNIFADLLPNSFAKLVPCEGKDVTQGLEVKVKLGNIWKESLIELSGGQRSLIALSLIMALLQFRPAPMYILDQVDAALDLSHTQNIGHLIKTRFKGSQFIVVSLKEGMFANANRVFRTRFQDGTSVVSIM
